B1: UV excision repair protein RAD23 homolog B (Homo sapiens), P54727 (parent)
chain: MQVTLKTLQQQTFKIDIDPEETVKALKEKIESEKGKDAFPVAGQKLIYAGKILNDDTALKEYKIDEKNFVVVMVTKPKAVSTPAPATTQQSAPASTTAVTSSTTTTVAQAPTPVPALAPTSTPASITPASATASSEPAPASAAKQEKPAEKPAETPVATSPTATDSTSGDSSRSNLFEDATSALVTGQSYENMVTEIMSMGYEREQVIAALRASFNNPDRAVEYLLMGIPGDRESQAVVDPPQAASTGAPQSSAVAAAAATTTATTTTTSSGGHPLEFLRNQPQFQQMRQIIQQNPSLLPALLQQIGRENPQLLQQISQHQEHFIQMLNEPVQEAGGQGGGGGGGSGGIAEAGSGHMNYIQVTPQEKEAIERLKALGFPEGLVIQAYFACEKNENLAANFLLQQNFDED
B2: 26S proteasome non-ATPase regulatory subunit 4 (Homo sapiens), P55036 (parent)
chain: MVLESTMVCVDNSEYMRNGDFLPTRLQAQQDAVNIVCHSKTRSNPENNVGLITLANDCEVLTTLTPDTGRILSKLHTVQPKGKITFCTGIRVAHLALKHRQGKNHKMRIIAFVGSPVEDNEKDLVKLAKRLKKEKVNVDIINFGEEEVNTEKLTAFVNTLNGKDGTGSHLVTVPPGPSLADALISSPILAGEGGAMLGLGASDFEFGVDPSADPELALALRVSMEEQRQRQEEEARRAAAASAAEAGIATTGTEDSDDALLKMTISQQEFGRTGLPDLSSMTEEEQIAYAMQMSLQGAEFGQAESADIDASSAMDTSEPAKEEDDYDVMQDPEFLQSVLENLPGVDPNNEAIRNAMGSLASQATKDGKKDKKEEDKK

Variants of: B1
Conditions: with psmd4_human PSMD4, P55036

| Variant | effect of a mutation on the interaction |
| --- | --- |
| L8A | disrupting interaction |

Variants of: B1
Conditions: with ubc_human UBC

| Variant | effect of a mutation on the interaction |
| --- | --- |
| M200A;G201A;Y202A;L376A;G377A;F378A | disrupting interaction strength |
| L376A;G377A;F378A | decreasing interaction strength |

Variants of: B1
Conditions: with ubc_human UBC
Remark: another data set of the same source

| Variant | effect of a mutation on the interaction |
| --- | --- |
| M200A;G201A;Y202A | decreasing interaction strength |

Variants of: B2
Conditions: with ubql1_human UBQLN1, Q9UMX0
Sequence of ubql1_human UBQLN1, Q9UMX0 (Q9UMX0 whole entry): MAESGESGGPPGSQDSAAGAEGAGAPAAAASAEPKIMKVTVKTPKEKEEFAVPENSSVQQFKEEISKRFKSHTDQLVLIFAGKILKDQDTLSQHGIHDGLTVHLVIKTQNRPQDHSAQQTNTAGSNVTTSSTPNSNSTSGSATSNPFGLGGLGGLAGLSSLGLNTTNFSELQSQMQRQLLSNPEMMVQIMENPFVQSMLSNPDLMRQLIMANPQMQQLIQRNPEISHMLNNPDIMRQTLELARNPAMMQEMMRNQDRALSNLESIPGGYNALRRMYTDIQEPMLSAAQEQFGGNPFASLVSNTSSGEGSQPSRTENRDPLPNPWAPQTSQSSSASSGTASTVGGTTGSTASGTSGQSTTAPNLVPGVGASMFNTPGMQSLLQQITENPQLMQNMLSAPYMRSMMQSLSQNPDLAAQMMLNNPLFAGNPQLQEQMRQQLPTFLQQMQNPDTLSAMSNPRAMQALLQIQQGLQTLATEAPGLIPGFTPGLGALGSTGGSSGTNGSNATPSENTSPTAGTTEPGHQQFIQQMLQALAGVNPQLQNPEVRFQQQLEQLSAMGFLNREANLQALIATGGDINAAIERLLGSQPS

| Variant | effect of a mutation on the interaction |
| --- | --- |
| MVLESTMVCVDNSEYMRNGDFLPTRLQAQQDAVNIVCHSKTRSNPENNVGLITLANDCEVLTTLTPDTGRILSKLHTVQPKGKITFCTGIRVAHLALKHRQGKNHKMRIIAFVGSPVEDNEKDLVKLAKRLKKEKVNVDIINFGEEEVNTEKLTAFVNTLNGKDGTGSHLVTVPPGPSLADALISSPILAGEGGAMLGLGASDFEFGVDPSADPENNNNNRVSMEEQRQRQEEEARRAAAASAAEAGIATTGTEDSDDALLKMTISQQEFGRTGLPDLSSMTEEEQIAYAMQMSLQGAEFGQAESADIDASSAMDTSEPAKEEDDYDVMQDPEFLQSVLENLPGVDPNNEAIRNAMGSLASQATKDGKKDKKEEDKK [L216N;A217N;L218N;A219N;L220N] | decreasing interaction strength |
| MVLESTMVCVDNSEYMRNGDFLPTRLQAQQDAVNIVCHSKTRSNPENNVGLITLANDCEVLTTLTPDTGRILSKLHTVQPKGKITFCTGIRVAHLALKHRQGKNHKMRIIAFVGSPVEDNEKDLVKLAKRLKKEKVNVDIINFGEEEVNTEKLTAFVNTLNGKDGTGSHLVTVPPGPSLADALISSPILAGEGGAMLGLGASDFEFGVDPSADPENNNNNRVSMEEQRQRQEEEARRAAAASAAEAGIATTGTEDSDDALLKMTISQQEFGRTGLPDLSSMTEEEQNNNNNQMSLQGAEFGQAESADIDASSAMDTSEPAKEEDDYDVMQDPEFLQSVLENLPGVDPNNEAIRNAMGSLASQATKDGKKDKKEEDKK [L216N;A217N;L218N;A219N;L220N;I287N;A288N;Y289N;A290N;M291N] | disrupting interaction strength |

Variants of: B2
Conditions: with ubql2_human UBQLN2, Q9UHD9
Sequence of ubql2_human UBQLN2, Q9UHD9 (Q9UHD9 whole entry): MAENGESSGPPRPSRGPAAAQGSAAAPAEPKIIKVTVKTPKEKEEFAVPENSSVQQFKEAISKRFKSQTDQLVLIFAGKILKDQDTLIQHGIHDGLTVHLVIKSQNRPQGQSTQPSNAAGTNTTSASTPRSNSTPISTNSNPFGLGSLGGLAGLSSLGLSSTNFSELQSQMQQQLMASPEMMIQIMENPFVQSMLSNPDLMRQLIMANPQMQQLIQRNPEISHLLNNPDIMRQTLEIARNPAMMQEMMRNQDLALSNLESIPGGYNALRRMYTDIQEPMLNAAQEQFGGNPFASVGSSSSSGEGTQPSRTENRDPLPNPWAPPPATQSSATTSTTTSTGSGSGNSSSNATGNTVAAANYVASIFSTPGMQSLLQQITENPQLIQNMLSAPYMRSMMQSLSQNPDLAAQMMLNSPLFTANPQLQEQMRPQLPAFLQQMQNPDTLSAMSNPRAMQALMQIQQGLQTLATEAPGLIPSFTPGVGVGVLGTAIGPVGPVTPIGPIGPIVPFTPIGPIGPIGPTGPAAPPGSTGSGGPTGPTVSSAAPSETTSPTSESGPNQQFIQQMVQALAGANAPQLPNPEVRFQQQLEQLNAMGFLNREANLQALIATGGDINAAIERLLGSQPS

| Variant | effect of a mutation on the interaction |
| --- | --- |
| MVLESTMVCVDNSEYMRNGDFLPTRLQAQQDAVNIVCHSKTRSNPENNVGLITLANDCEVLTTLTPDTGRILSKLHTVQPKGKITFCTGIRVAHLALKHRQGKNHKMRIIAFVGSPVEDNEKDLVKLAKRLKKEKVNVDIINFGEEEVNTEKLTAFVNTLNGKDGTGSHLVTVPPGPSLADALISSPILAGEGGAMLGLGASDFEFGVDPSADPENNNNNRVSMEEQRQRQEEEARRAAAASAAEAGIATTGTEDSDDALLKMTISQQEFGRTGLPDLSSMTEEEQIAYAMQMSLQGAEFGQAESADIDASSAMDTSEPAKEEDDYDVMQDPEFLQSVLENLPGVDPNNEAIRNAMGSLASQATKDGKKDKKEEDKK [L216N;A217N;L218N;A219N;L220N] | with no effect |
| MVLESTMVCVDNSEYMRNGDFLPTRLQAQQDAVNIVCHSKTRSNPENNVGLITLANDCEVLTTLTPDTGRILSKLHTVQPKGKITFCTGIRVAHLALKHRQGKNHKMRIIAFVGSPVEDNEKDLVKLAKRLKKEKVNVDIINFGEEEVNTEKLTAFVNTLNGKDGTGSHLVTVPPGPSLADALISSPILAGEGGAMLGLGASDFEFGVDPSADPENNNNNRVSMEEQRQRQEEEARRAAAASAAEAGIATTGTEDSDDALLKMTISQQEFGRTGLPDLSSMTEEEQNNNNNQMSLQGAEFGQAESADIDASSAMDTSEPAKEEDDYDVMQDPEFLQSVLENLPGVDPNNEAIRNAMGSLASQATKDGKKDKKEEDKK [L216N;A217N;L218N;A219N;L220N;I287N;A288N;Y289N;A290N;M291N] | disrupting interaction strength |

Variants of: B2
Conditions: with dsk2_yeast DSK2, P48510
Sequence of dsk2_yeast DSK2, P48510 (P48510 whole entry): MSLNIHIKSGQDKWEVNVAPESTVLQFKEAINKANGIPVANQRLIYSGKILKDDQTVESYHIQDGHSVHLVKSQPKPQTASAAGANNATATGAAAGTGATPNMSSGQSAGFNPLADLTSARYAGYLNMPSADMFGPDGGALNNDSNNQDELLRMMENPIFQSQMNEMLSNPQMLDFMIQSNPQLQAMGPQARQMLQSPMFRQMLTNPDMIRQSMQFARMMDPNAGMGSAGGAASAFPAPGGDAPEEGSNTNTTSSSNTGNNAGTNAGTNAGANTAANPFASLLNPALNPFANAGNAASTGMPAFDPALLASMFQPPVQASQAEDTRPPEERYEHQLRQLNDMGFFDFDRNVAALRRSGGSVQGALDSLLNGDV

| Variant | effect of a mutation on the interaction |
| --- | --- |
| MVLESTMVCVDNSEYMRNGDFLPTRLQAQQDAVNIVCHSKTRSNPENNVGLITLANDCEVLTTLTPDTGRILSKLHTVQPKGKITFCTGIRVAHLALKHRQGKNHKMRIIAFVGSPVEDNEKDLVKLAKRLKKEKVNVDIINFGEEEVNTEKLTAFVNTLNGKDGTGSHLVTVPPGPSLADALISSPILAGEGGAMLGLGASDFEFGVDPSADPENNNNNRVSMEEQRQRQEEEARRAAAASAAEAGIATTGTEDSDDALLKMTISQQEFGRTGLPDLSSMTEEEQIAYAMQMSLQGAEFGQAESADIDASSAMDTSEPAKEEDDYDVMQDPEFLQSVLENLPGVDPNNEAIRNAMGSLASQATKDGKKDKKEEDKK [L216N;A217N;L218N;A219N;L220N] | disrupting interaction strength |
| MVLESTMVCVDNSEYMRNGDFLPTRLQAQQDAVNIVCHSKTRSNPENNVGLITLANDCEVLTTLTPDTGRILSKLHTVQPKGKITFCTGIRVAHLALKHRQGKNHKMRIIAFVGSPVEDNEKDLVKLAKRLKKEKVNVDIINFGEEEVNTEKLTAFVNTLNGKDGTGSHLVTVPPGPSLADALISSPILAGEGGAMLGLGASDFEFGVDPSADPENNNNNRVSMEEQRQRQEEEARRAAAASAAEAGIATTGTEDSDDALLKMTISQQEFGRTGLPDLSSMTEEEQNNNNNQMSLQGAEFGQAESADIDASSAMDTSEPAKEEDDYDVMQDPEFLQSVLENLPGVDPNNEAIRNAMGSLASQATKDGKKDKKEEDKK [L216N;A217N;L218N;A219N;L220N;I287N;A288N;Y289N;A290N;M291N] | disrupting interaction strength |

Variants of: B2
Conditions: with rd23b_human RAD23B

| Variant | effect of a mutation on the interaction |
| --- | --- |
| MVLESTMVCVDNSEYMRNGDFLPTRLQAQQDAVNIVCHSKTRSNPENNVGLITLANDCEVLTTLTPDTGRILSKLHTVQPKGKITFCTGIRVAHLALKHRQGKNHKMRIIAFVGSPVEDNEKDLVKLAKRLKKEKVNVDIINFGEEEVNTEKLTAFVNTLNGKDGTGSHLVTVPPGPSLADALISSPILAGEGGAMLGLGASDFEFGVDPSADPENNNNNRVSMEEQRQRQEEEARRAAAASAAEAGIATTGTEDSDDALLKMTISQQEFGRTGLPDLSSMTEEEQIAYAMQMSLQGAEFGQAESADIDASSAMDTSEPAKEEDDYDVMQDPEFLQSVLENLPGVDPNNEAIRNAMGSLASQATKDGKKDKKEEDKK [L216N;A217N;L218N;A219N;L220N] | decreasing interaction strength |
| MVLESTMVCVDNSEYMRNGDFLPTRLQAQQDAVNIVCHSKTRSNPENNVGLITLANDCEVLTTLTPDTGRILSKLHTVQPKGKITFCTGIRVAHLALKHRQGKNHKMRIIAFVGSPVEDNEKDLVKLAKRLKKEKVNVDIINFGEEEVNTEKLTAFVNTLNGKDGTGSHLVTVPPGPSLADALISSPILAGEGGAMLGLGASDFEFGVDPSADPENNNNNRVSMEEQRQRQEEEARRAAAASAAEAGIATTGTEDSDDALLKMTISQQEFGRTGLPDLSSMTEEEQNNNNNQMSLQGAEFGQAESADIDASSAMDTSEPAKEEDDYDVMQDPEFLQSVLENLPGVDPNNEAIRNAMGSLASQATKDGKKDKKEEDKK [L216N;A217N;L218N;A219N;L220N;I287N;A288N;Y289N;A290N;M291N] | disrupting interaction strength |

Reference: IntAct's records for PubMed 20059542
